Experimental data published in article PMC7263513 (bioRxiv, 2020).

B1: C208 (antibody, V domains shown)
VH: EVQLVQSGAEVKKPGESLKISCKGSGYSFTSYWIGWVRQMPGKGLEWMGIIYPGDSDTRYSPSFQGQVTISADKSISTAYLKWSSLKASDSAMYYCARGPNLQNWFDPWGQGTLVTVSS
VL: EIVLTQSPGTLSLSPGERATLSCRASQSVSGSYLAWYQQRPGQAPRLLIYGASSRATGIPDRFSGSGSGTDFTLTISRLEPEDFAVYYCQQYGSSLTFGGGTKVEIK
B2: C212 (antibody, V domains shown)
VH: QVQLVQSGAEVKKPGASVKVSCKASGYTVTGYYIHWVRQAPGQGLEWMGWISPNSGGTNYAQKFQGWVTMTRDMSITTAYMELSRLRSDDTAVYYCARERYFDLGGMDVWGQGTTVTVSS
VL: LTQPASVSGSPGQSITISCTGTSSDVGSYNLVSWYQQHPGKAPKLMIYEDSKRPSGVSNRFSGSKSGNTASLTISGLQAEDEADYYCCSYAGSSTRLFGGGTKLTVL
B3: C146 (antibody, V domains shown)
VH: EVQLVESGGGLVKPGGSLRLSCAASGLTFTAYRMNWVRQAPGKGLEWLSSISNTNGDIYYADSVKGRFTISRDNAKNSLYLQMNSLRADDTAVYYCARDVASNYAYFDLWGQGTLVTVSS
VL: QSALTQPASVSGSPGQSITISCTGTSSDIGVYNYISWSQQHPGKAPKVMIYDVTNRPSGVSNRFSGSKSGNTASLTISGLQAEDEADYYCSSYRGSSTPYVFGTGTKVTVL
B4: C216 (antibody, V domains shown)
VH: EVQLVESGGGLVQPGGSLRLSCAASGFTFSSYDMHWVRQATGKGLEWVSAIGTAGDTYYPDSVKGRFTISRENAKNSLYLQMNSLRAGDTAVYYCARDRGSSGWYGWYFDLWGRGTLVTVSS
VL: not shown
B5: C214 (antibody, V domains shown)
VH: QVQLVESGGGVVQPGRSLRLSCAASGFTFSSYGMHWVRQAPGKGLEWVAAIWYDGSNKHYADSVKGRFTISRDNSKNTLYLQMNSLRAEDTAVYYCARDVGRVTTWFDPWGQGTLVTVSS
VL: not shown
B6: C215 (antibody, V domains shown)
VH: EVQLLESGGGLVQPGGSLRLSCAASGFTFSSYAMSWVRQAPGKGLEWVSAITDSGDGTFYADSVKGRFTISRDNSKNTLYLQMNSLRAEDTAVYYCASEEDYSNYVGWFDPWGQGTLVTVSS
VL: not shown

These binders were tested against T1, SARS-CoV-2 receptor binding domain (RBD) (Severe acute respiratory syndrome …, UniProt P0DTC2) (assay: ELISA).

Binder | binding result
B1 | no binding (tested: >1000 ng/ml)
B2 | no binding (tested: >1000 ng/ml)
B3 | no binding (tested: >1000 ng/ml)

The binders below were run against T1, SARS-CoV-2 receptor binding domain (RBD) (assay: cell-based or functional assay).

Binder | IC50 of neutralisation of SARS-CoV-2 pseudovirus (293T_(ACE2) cells) [µg/mL]
B4 | > 1
B5 | > 1
B6 | > 1
